Assay results as given in patent US20180134765A1 (AVIDBIOTICS, published 2018).

T1: FGFR3 (plate-coated) (UniProt P22607 23-375)
T1 construct: also called Fibroblast Growth Factor Receptor 3
T1 sequence (looked up): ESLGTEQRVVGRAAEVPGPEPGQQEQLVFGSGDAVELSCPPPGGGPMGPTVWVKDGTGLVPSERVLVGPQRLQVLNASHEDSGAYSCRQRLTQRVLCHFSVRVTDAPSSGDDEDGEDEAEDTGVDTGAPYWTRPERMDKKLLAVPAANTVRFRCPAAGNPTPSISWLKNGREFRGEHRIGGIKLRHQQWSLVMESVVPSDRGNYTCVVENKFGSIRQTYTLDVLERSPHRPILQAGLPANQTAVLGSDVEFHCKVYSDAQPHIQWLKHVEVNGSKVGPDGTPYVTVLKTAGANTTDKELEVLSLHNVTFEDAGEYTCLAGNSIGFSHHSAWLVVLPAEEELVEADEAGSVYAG

T2: human NKG2D-Fc (human, UniProt P26718 78-216, limits assumed)
T2 construct: also called natural NKG2D-Fc; not shown: Fc part
T2 sequence (looked up): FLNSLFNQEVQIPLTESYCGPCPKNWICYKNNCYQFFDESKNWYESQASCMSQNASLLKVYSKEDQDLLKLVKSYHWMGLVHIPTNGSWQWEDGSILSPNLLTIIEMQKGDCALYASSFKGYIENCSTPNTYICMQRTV

T3: NKG2D on NKL cells (human, UniProt P26718 1-216)
T3 sequence (looked up): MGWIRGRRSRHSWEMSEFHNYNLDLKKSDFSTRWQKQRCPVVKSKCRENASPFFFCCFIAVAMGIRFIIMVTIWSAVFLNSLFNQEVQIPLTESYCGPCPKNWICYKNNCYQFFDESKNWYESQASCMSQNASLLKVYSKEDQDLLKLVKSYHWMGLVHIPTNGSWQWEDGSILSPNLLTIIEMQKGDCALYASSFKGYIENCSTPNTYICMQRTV

T4: murine NKG2D-Fc (mouse, UniProt O54709 94-232, limits assumed)
T4 construct: also called mouse NKG2D-Fc; not shown: Fc part; not described
T4 sequence (looked up): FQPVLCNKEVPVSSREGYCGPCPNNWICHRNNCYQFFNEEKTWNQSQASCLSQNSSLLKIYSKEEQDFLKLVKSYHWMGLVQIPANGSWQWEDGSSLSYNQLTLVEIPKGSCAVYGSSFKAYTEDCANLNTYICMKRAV

T5: His-avitag-natural NKG2D (human, biotin on the avitag sequence (BirA))
T5 construct: also called natural NKG2D ectodomain; wild type NKG2D
T5 chain: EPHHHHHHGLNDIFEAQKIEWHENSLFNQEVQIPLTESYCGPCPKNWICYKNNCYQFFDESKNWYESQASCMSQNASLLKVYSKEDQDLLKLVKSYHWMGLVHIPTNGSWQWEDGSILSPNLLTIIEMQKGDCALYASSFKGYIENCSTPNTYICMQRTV

B1: MICA-α3-iFv.1 (designed binder)
chain: EPHSLRYNLTVLSWDGSVQSGFLTEVHLDGQPFLRCDRQKCRAKPQGQWAEDVLGNKTWDRETRDLTGNGKDLRMTLAHIKDQKEGLHSLQEIRVCEIHEDNSTRSSQHFYYDGELFLSQNLETKEWTMPQSSRAQTLAMNVRNFLKEDAMKTKTHYHAMHADCLQELRRYLKSGVVLRRTVPPMVQVTRSEASGDRVTITCRASQDVSTAVAWYQQKPGKAPKLLIYSASFLYSGVPSRFSGSGSGTDFTLTISSLQPEDFATYYCQQSYTTPPTFGQGTKVEIKGGSSRSSSSGGGGSGGGGEVQLVESGGGLVQPGGSLRLSCAASGFTFTSTGISWVRQAPGKGLEWVGRIYPTNGSTNYADSVKGRFTISADTSKNTAYLQMNSLRAEDTAVYYCARTYGIYDLYVDYTEYVMDYWGQGTLVTVSSGGSSRSSSSGGGGSGGGGDIQMTQSPSSLSASGQITVTCRASGFYPWNITLSWRQDGVSLSHDTQQWGDVLPDGQGTYQTWVATRISQGEEQRFTCYMEHSGQHSTHPVPSGKGSHHHHHH
notes: His-tagged, monomeric, made in insect cells; also called sMICA-α3-iFv.1
B2: ULBP1-α3-iFv.2 (designed binder)
chain: EPHCLCYDFIITPKSRPEPQWCEVQGLVDERPFLHYDCVNHKAKAFASLGKKVNVTKTWEEQTETLRDVVDFLKGQLLDIQVENLIPIEPLTLQARMSCEHEAHGHGRGSWQFLFNGQKFLLFDSNNRKWTALHPGAKKMTEKWEKNRDVTMFFQKISLGDCKMWLEEFLMYWEQMLDPTKPPMVQVTRSEASGGSGDRVTITCRASQDVSTAVAWYQQKPGKAPKLLIYSASFLYSGVPSRFSGSGSGTDFTLTISSLQPEDFATYYCQQSYTTPPTFGQGTKVEIKGGSSRSSSSGGGGSGGGGEVQLVESGGGLVQPGGSLRLSCAASGFTFTSTGISWVRQAPGKGLEWVGRIYPTNGSTNYADSVKGRFTISADTSKNTAYLQMNSLRAEDTAVYYCARTYGIYDLYVDYTEYVMDYWGQGTLVTVSSGGSSRSSSSGGGGSGGGGDIQMTQSPSSLSASGGSGQITVTCRASGFYPWNITLSWRQDGVSLSHDTQQWGDVLPDGQGTYQTWVATRISQGEEQRFTCYMEHSGQHSTHPVPSGKGSHHHHHH
notes: His-tagged, monomeric, insect cells; also called NKG2DL-α3-iFv.2 (ULBP1)
B3: α1-α2 variant 16 (ligand)
chain: EPHSLRYNLTVLSWDGSVQSGFLTEVHLDGQPFLRCDRQKCRAKPQGQWAEDVLGNKTWDRETRDLTGWGKDLRMTLAHIKDQKEGLHSLQEIRVCEIHEDNSTRSSQHFYYDGELFLSQNLETLEWTMPQSSRAQTLAMNVRNFLKEDAMETDTHYHAMRADCLQELRRYLKSGVVLRRTVPPMVQVTRSEASGGSGDRVTITCRASQDVSTAVAWYQQKPGKAPKLLIYSASFLYSGVPSRFSGSGSGTDFTLTISSLQPEDFATYYCQQSYTTPPTFGQGTKVEIKGGSSRSSSSGGGGSGGGGEVQLVESGGGLVQPGGSLRLSCAASGFTFTSTGISWVRQAPGKGLEWVGRIYPTNGSTNYADSVKGRFTISADTSKNTAYLQMNSLRAEDTAVYYCARTYGIYDLYVDYTEYVMDYWGQGTLVTVSSGGSSRSSSSGGGGSGGGGDIQMTQSPSSLSASGGSGQITVTCRASGFYPWNITLSWRQDGVSLSHDTQQWGDVLPDGQGTYQTWVATRISQGEEQRFTCYMEHSGQHSTHPVPSGKGSHHHHHH
B4: α1-α2 variant 17 (ligand)
chain: EPHSLRYNLTVLSWDGSVQSGFLTEVHLDGQPFLRCDRQKCRAKPQGQWAEDVLGNKTWDRETRDLTLWGKDLRMTLAHIKDQKEGLHSLQEIRVCEIHEDNSTRSSQHFYYDGELFLSQNLETLEWTMPQSSRAQTLAMNVRNFLKEDAMETDTHYHAMRADCLQELRRYLKSGVVLRRTVPPMVQVTRSEASGGSGDRVTITCRASQDVSTAVAWYQQKPGKAPKLLIYSASFLYSGVPSRFSGSGSGTDFTLTISSLQPEDFATYYCQQSYTTPPTFGQGTKVEIKGGSSRSSSSGGGGSGGGGEVQLVESGGGLVQPGGSLRLSCAASGFTFTSTGISWVRQAPGKGLEWVGRIYPTNGSTNYADSVKGRFTISADTSKNTAYLQMNSLRAEDTAVYYCARTYGIYDLYVDYTEYVMDYWGQGTLVTVSSGGSSRSSSSGGGGSGGGGDIQMTQSPSSLSASGGSGQITVTCRASGFYPWNITLSWRQDGVSLSHDTQQWGDVLPDGQGTYQTWVATRISQGEEQRFTCYMEHSGQHSTHPVPSGKGSHHHHHH
B5: MICwed-Fv (designed binder)
chain: EPHSLRYNLTVLSWDGSVQSGFLTEVHLDGQPFLRCDRQKCRAKPQGQWAEDVLGNKTWDRETRDLTGWGKDLRMTLAHIKDQKEGLHSLQEIRVCEIHEDNSTRSSQHFYYDGELFLSQNLETKEWTMPQSSRAQTLAMNVRNFLKEDAMETDTHYHAMHADCLQELRRYLKSGVVLRRTVPPMVQVTRSEASGGSGDRVTITCRASQDVSTAVAWYQQKPGKAPKLLIYSASFLYSGVPSRFSGSGSGTDFTLTISSLQPEDFATYYCQQSYTTPPTFGQGTKVEIKGGSSRSSSSGGGGSGGGGEVQLVESGGGLVQPGGSLRLSCAASGFTFTSTGISWVRQAPGKGLEWVGRIYPTNGSTNYADSVKGRFTISADTSKNTAYLQMNSLRAEDTAVYYCARTYGIYDLYVDYTEYVMDYWGQGTLVTVSSGGSSRSSSSGGGGSGGGGDIQMTQSPSSLSASGGSGQITVTCRASGFYPWNITLSWRQDGVSLSHDTQQWGDVLPDGQGTYQTWVATRISQGEEQRFTCYMEHSGQHSTHPVPSGKGSHHHHHH
notes: His-tagged α1-α2-α3-Fv fusion; also called MICwed-Fv run A; MICwed-Fv run B
B6: α1-α2 variant 18 (ligand)
chain: EPHSLRYNLTVLSWDGSVQPGFLTEVHLDGQPFLRCDRQKCRAKPQGQWAEDVLGNKTWDRETRDLTLWGKDLRMTLAHIKDQKEGLHSLQEIRVCEIHEDNSTRSSQHFYYDGELFLSQNLETLEWTMPQSSRAQTLAMNVRNFLKEDAMETDTHYHAMRADCLQELRRYLKSGVVLRRTVPPMVQVTRSEASGGSGDRVTITCRASQDVSTAVAWYQQKPGKAPKLLIYSASFLYSGVPSRFSGSGSGTDFTLTISSLQPEDFATYYCQQSYTTPPTFGQGTKVEIKGGSSRSSSSGGGGSGGGGEVQLVESGGGLVQPGGSLRLSCAASGFTFTSTGISWVRQAPGKGLEWVGRIYPTNGSTNYADSVKGRFTISADTSKNTAYLQMNSLRAEDTAVYYCARTYGIYDLYVDYTEYVMDYWGQGTLVTVSSGGSSRSSSSGGGGSGGGGDIQMTQSPSSLSASGGSGQITVTCRASGFYPWNITLSWRQDGVSLSHDTQQWGDVLPDGQGTYQTWVATRISQGEEQRFTCYMEHSGQHSTHPVPSGKGSHHHHHH
B7: ULBP4-α3-iFv.2 (designed binder)
chain: EPHSLCFNFTIKSLSRPGQPWCEAQVFLNKNLFLQYNSDNNMVKPLGLLGKKVYATSTWGELTQTLGEVGRDLRMLLCDIKPQIKTSDPSTLQVEMFCQREAERCTGASWQFATNGEKSLLFDAMNMTWTVINHEASKIKETWKKDRGLEKYFRKLSKGDCDHWLREFLGHWEAMPEPTVSPPMVQVTRSEASGGSGDRVTITCRASQDVSTAVAWYQQKPGKAPKLLIYSASFLYSGVPSRFSGSGSGTDFTLTISSLQPEDFATYYCQQSYTTPPTFGQGTKVEIKGGSSRSSSSGGGGSGGGGEVQLVESGGGLVQPGGSLRLSCAASGFTFTSTGISWVRQAPGKGLEWVGRIYPTNGSTNYADSVKGRFTISADTSKNTAYLQMNSLRAEDTAVYYCARTYGIYDLYVDYTEYVMDYWGQGTLVTVSSGGSSRSSSSGGGGSGGGGDIQMTQSPSSLSASGGSGQITVTCRASGFYPWNITLSWRQDGVSLSHDTQQWGDVLPDGQGTYQTWVATRISQGEEQRFTCYMEHSGQHSTHPVPSGKGSHHHHHH
notes: His-tagged, monomeric, insect cells; also called NKG2DL-α3-iFv.2 (ULBP4)
B8: ULBP3-α3-iFv.2 (designed binder)
chain: EPHSLWYNFTIIHLPRHGQQWCEVQSQVDQKNFLSYDCGSDKVLSMGHLEEQLYATDAWGKQLEMLREVGQRLRLELADTELEDFTPSGPLTLQVRMSCECEADGYIRGSWQFSFDGRKFLLFDSNNRKWTVVHAGARRMKEKWEKDSGLTTFFKMVSMRDCKSWLRDFLMHRKKRLEPTAPPMVQVTRSEASGGSGDRVTITCRASQDVSTAVAWYQQKPGKAPKLLIYSASFLYSGVPSRFSGSGSGTDFTLTISSLQPEDFATYYCQQSYTTPPTFGQGTKVEIKGGSSRSSSSGGGGSGGGGEVQLVESGGGLVQPGGSLRLSCAASGFTFTSTGISWVRQAPGKGLEWVGRIYPTNGSTNYADSVKGRFTISADTSKNTAYLQMNSLRAEDTAVYYCARTYGIYDLYVDYTEYVMDYWGQGTLVTVSSGGSSRSSSSGGGGSGGGGDIQMTQSPSSLSASGGSGQITVTCRASGFYPWNITLSWRQDGVSLSHDTQQWGDVLPDGQGTYQTWVATRISQGEEQRFTCYMEHSGQHSTHPVPSGKGSHHHHHH
notes: His-tagged, monomeric, insect cells; also called NKG2DL-α3-iFv.2 (ULBP3)

Legend:
FGFR3 (plate-coated) = biological target: T1, FGFR3 (plate-coated); assay: ELISA: FGFR3 coated at 2 ug/ml, protein titrated, bound protein detected with NKG2D-Fc and anti-Fc-HRP
human NKG2D-Fc = biological target: T2, human NKG2D-Fc; assay: ELISA: protein captured on FGFR3 detected with NKG2D-Fc
NKG2D on NKL cells = biological target: T3, NKG2D on NKL cells; assay: cell-based or functional assay
murine NKG2D-Fc = biological target: T4, murine NKG2D-Fc; assay: competition ELISA: variant titrated against mouse NKG2D-Fc binding to plate-coated MICA (competitor), detected with anti-Fc-HRP
His-avitag-natural NKG2D = biological target: T5, His-avitag-natural NKG2D; assay: biolayer interferometry (Octet), biotinylated natural NKG2D ectodomain on the surface, 100 nM fusion protein; run B

Binder | binding result (human NKG2D-Fc) | NK cell-mediated lysis of FGFR3-expressing P815 target cells (calcein release, NKL cells) (NKG2D on NKL cells) | other results
B1 | binds | – | EC50 (read off the curve) (FGFR3 (plate-coated)): ~1 nM
B2 | binds | – | –
B3 | – | ~15 fold more killing than WT at 0.78 nM | –
B4 | – | ~15 fold more killing than WT at 0.78 nM | IC50 (read off the curve) (murine NKG2D-Fc): ~1 nM
B5 | – | – | Kd (His-avitag-natural NKG2D): 15.5 nM; koff (His-avitag-natural NKG2D): 0.00312 s⁻¹; kon (His-avitag-natural NKG2D): 201000 M⁻¹ s⁻¹
B6 | – | ~15 fold more killing than WT at 0.78 nM | IC50 (read off the curve) (murine NKG2D-Fc): ~1 nM
B7 | binds | – | –
B8 | binds | – | –
